Experimental data from the supplement of paper PMC9112550, “Optimization of the antimicrobial peptide Bac7 by deep mutational scanning” (BMC Biology, 2022).

tested on: Escherichia coli TOP10; test: shrunken log2 fold change of peptide-encoding DNA abundance (4.5 h post-induction vs induction); higher = less antimicrobial activity (less host growth inhibition); conditions: time post-induction: 4.5 h; library: site-saturation at positions 5, 18, 19, 20
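Further: peptides expressed intracellularly from a pBAD plasmid library in pooled LB shake-flask culture, induced with 0.3% L-arabinose, DNA abundance read by NGS, three biological replicates, DESeq2 with apeglm shrinkage.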

Sequence	shrunken log2 fold change
RRIRMRPPRLPRPRPRPQSAPRP	0.055
RRIRMRPPRLPRPRPRPQSEPRP	0.446
RRIRMRPPRLPRPRPRPQTEPRP	0.12
RRIRMRPPRLPRPRPRPQTQPRP	2.46
RRIRMRPPRLPRPRPRPQWSPRP	0.0117
RRIRMRPPRLPRPRPRPRCAPRP	1.12
RRIRMRPPRLPRPRPRPRCKPRP	0.198
RRIRMRPPRLPRPRPRPRDSPRP	0.117
RRIRMRPPRLPRPRPRPRFMPRP	0.385
RRIRMRPPRLPRPRPRPRGEPRP	0.0602
RRIRMRPPRLPRPRPRPRKEPRP	0.704
RRIRMRPPRLPRPRPRPRKNPRP	0.433
RRIRMRPPRLPRPRPRPRKPPRP	0.915
RRIRMRPPRLPRPRPRPRMLPRP	0.465
RRIRMRPPRLPRPRPRPRNFPRP	1.12
RRIRMRPPRLPRPRPRPRNWPRP	0.788
RRIRMRPPRLPRPRPRPRPPPRP	1.55
RRIRMRPPRLPRPRPRPRQGPRP	-0.0232
RRIRMRPPRLPRPRPRPRSQPRP	0.108
RRIRMRPPRLPRPRPRPRSTPRP	0.888
RRIRMRPPRLPRPRPRPRTCPRP	0.00872
RRIRMRPPRLPRPRPRPRVEPRP	0.379
RRIRMRPPRLPRPRPRPRVWPRP	2.08
RRIRMRPPRLPRPRPRPRWAPRP	1.3
RRIRMRPPRLPRPRPRPRWFPRP	0.717

Sequence	shrunken log2 fold change
RRIRMRPPRLPRPRPRPRYWPRP	-0.14
RRIRMRPPRLPRPRPRPSAQPRP	0.623
RRIRMRPPRLPRPRPRPSCPPRP	-0.0916
RRIRMRPPRLPRPRPRPSECPRP	0.0809
RRIRMRPPRLPRPRPRPSEDPRP	0.974
RRIRMRPPRLPRPRPRPSENPRP	-0.0243
RRIRMRPPRLPRPRPRPSFQPRP	-0.283
RRIRMRPPRLPRPRPRPSGCPRP	0.44
RRIRMRPPRLPRPRPRPSGNPRP	-0.14
RRIRMRPPRLPRPRPRPSHKPRP	-0.183
RRIRMRPPRLPRPRPRPSISPRP	0.000307
RRIRMRPPRLPRPRPRPSLYPRP	-0.126
RRIRMRPPRLPRPRPRPSMDPRP	0.0865
RRIRMRPPRLPRPRPRPSNGPRP	-0.0373
RRIRMRPPRLPRPRPRPSNKPRP	0.0232
RRIRMRPPRLPRPRPRPSNLPRP	0.00954
RRIRMRPPRLPRPRPRPSNRPRP	-0.0397
RRIRMRPPRLPRPRPRPSNVPRP	-0.259
RRIRMRPPRLPRPRPRPSNWPRP	0.225
RRIRMRPPRLPRPRPRPSQFPRP	0.379
RRIRMRPPRLPRPRPRPSQIPRP	-0.03
RRIRMRPPRLPRPRPRPSQTPRP	0.38
RRIRMRPPRLPRPRPRPSRGPRP	0.732
RRIRMRPPRLPRPRPRPSRHPRP	0.228
RRIRMRPPRLPRPRPRPSTAPRP	0.788

Sequence	shrunken log2 fold change
RRIRMRPPRLPRPRPRPSTNPRP	0.0712
RRIRMRPPRLPRPRPRPSVSPRP	-0.35
RRIRMRPPRLPRPRPRPSWCPRP	0.387
RRIRMRPPRLPRPRPRPSWYPRP	-0.506
RRIRMRPPRLPRPRPRPSYYPRP	-0.531
RRIRMRPPRLPRPRPRPTCPPRP	0.128
RRIRMRPPRLPRPRPRPTDGPRP	-0.0062
RRIRMRPPRLPRPRPRPTDNPRP	0.188
RRIRMRPPRLPRPRPRPTECPRP	0.0996
RRIRMRPPRLPRPRPRPTFGPRP	0.374
RRIRMRPPRLPRPRPRPTFNPRP	-0.283
RRIRMRPPRLPRPRPRPTFSPRP	0.386
RRIRMRPPRLPRPRPRPTGLPRP	0.961
RRIRMRPPRLPRPRPRPTGWPRP	0.687
RRIRMRPPRLPRPRPRPTHSPRP	0.483
RRIRMRPPRLPRPRPRPTIEPRP	0.43
RRIRMRPPRLPRPRPRPTIIPRP	-0.374
RRIRMRPPRLPRPRPRPTIQPRP	0.318
RRIRMRPPRLPRPRPRPTKFPRP	0.339
RRIRMRPPRLPRPRPRPTKIPRP	0.318
RRIRMRPPRLPRPRPRPTKRPRP	0.901
RRIRMRPPRLPRPRPRPTLAPRP	1.35
RRIRMRPPRLPRPRPRPTMIPRP	-0.185
RRIRMRPPRLPRPRPRPTMRPRP	1.4
RRIRMRPPRLPRPRPRPTNAPRP	0.408
